Tested on: MS2 coat protein
Experiment: apparent KD of MS2 coat protein; designed switch direction (-1 OFF switch, 1 ON switch): 1; higher = weaker reporter binding
How it was run: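 The apparent KD reported per design is the median over clusters of curve fits to normalised cluster fluorescence. The RNA switches were transcribed on Illumina chips by stalled E. coli RNA polymerase. SNAP-549-labelled MS2 coat protein was titrated from 0.7 or 1.5 nM, doubling up to 3 µM, in Tris-HCl pH 7.5 buffer containing KCl, MgCl2, BSA, DTT, tRNA and Tween-20, with no input, 200 uM small-molecule ligand, or an oligonucleotide input.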

[1] = input ligand: microRNA oligo, concentration not stated
[2] = Eterna round: R95, input ligand: FMN 200 uM
[3] = Eterna round: R95, input ligand: microRNA oligo, concentration not stated
[4] = Eterna round: R95, input ligand: none

Sequence	apparent KD of MS2 coat protein (input ligand: FMN 200 uM) [nM]	apparent KD of MS2 coat protein [1] [nM]	apparent KD of MS2 coat protein (input ligand: none) [nM]	apparent KD of MS2 coat protein [2] [nM]	apparent KD of MS2 coat protein [3] [nM]	apparent KD of MS2 coat protein [4] [nM]
GCCAUCGAGUGAGGAUAUGGCACCGAAACGGUGCCAGAAGGCAUGUCAAAAGACAUGAGGAUCACCCAUGUAUUAUCGAUGGCA [Mat - Same State NG 1 - JL mod - D88] (Eterna round: R96, puzzle: Same State NG 1)	28.5	208	237			
GCCGCGUUUCACGCCUACAUGAGGAUCACCCAUGUAUGUAGGCAGGAUAUCGUUUGCUUUGCAAACGAGAAGGGCUGUAGUGGC [salish99_SSNG3_R04_007] (Eterna round: R96, puzzle: Same State NG 3)	41.7	92.3	116			
GCCGCGUUUCGCGCCUACAUGAGGAUCACCCAUGUUUGUAGGCAGGAUAUCGUCCGCUUUGCGGGCGAGAAGGGCUGUUGUGGC [salish99_SSNG3_R04_021] (Eterna round: R96, puzzle: Same State NG 3)	47	43.5	54.8			
GCCGCGUUUCGCGCCUACAUGAGGAUCACCCAUGUUUGUAGGCAGGAUAUCGUUUGCUUUGCAACCGAGAAGGGCUGUUGUGGC [salish99_SSNG3_R04_013] (Eterna round: R96, puzzle: Same State NG 3)	51.6	38.4	55.5			
GCCGCGUUUCGCGCCUACAUGAGGAUCACCCAUGUUUGUAGGCAGGAUAUCGUUUGCUUUGCAAUCGAGAAGGGCUGUUGUGGC [salish99_SSNG3_R04_014] (Eterna round: R96, puzzle: Same State NG 3)	33	44.6	56.6			
GCCGCGUUUCGCGCCUACAUGAGGAUCACCCAUGUUUGUAGGCAGGAUAUCGUUUGCUUUGCAGGCGAGAAGGGCUGUUGUGGC [salish99_SSNG3_R04_016] (Eterna round: R96, puzzle: Same State NG 3)	43	39.1	46.5			
GCCGGCUGGUGAGGAUAUGGCACCUUAUUGGUGCCAGAAGGCAUGUCAAUUGACAUGAGGAUCACCCAUGUAUUAUAGUUGGCG [salish99_SSNG1_r04_605] (Eterna round: R96, puzzle: Same State NG 1)	414	69.3	56.1			
GCGAAAUGAUGAAACAUGAGGAUCACCCAUGUAACGAGAGAUGAGGAUAUCGGAAAGGGAGGAGACGAGAAGGCAUGGUCACGC [AK SSNG3-V2-25.1] (Eterna round: R96, puzzle: Same State NG 3)	48.4	43	58.7			
GCGAGCGUACUUGCAACAUGAGGAUCACCCAUGUUAACUGGACAGGAUAUGGUACCGUUUCGGUACCAGAAGGGUUCCUCAAUG [JL SSNG3 3.62] (Eterna round: R96, puzzle: Same State NG 3)	295	116	214			
GCGAGCGUACUUGCAACAUGAGGAUCACCCAUGUUAACUGGACAGGAUAUGGUACCGUUUCGGUACCAGAAGGGUUUAUCAUGU [JL SSNG3 3.66] (Eterna round: R96, puzzle: Same State NG 3)	92.3	92.8	116			
GCGAGCGUACUUGCAACAUGAGGAUCACCCAUGUUAACUGGACAGGAUAUGGUACCGUUUCGGUACCAGAAGGGUUUUUCAUGG [JL SSNG3 3.64] (Eterna round: R96, puzzle: Same State NG 3)	85.6	50.6	74.3			
GCGAGCGUACUUGCUACAUGAGGAUCACCCAUGUUCGUUGGACAGGAUAUGGUACCGUUUCGGUACCAGAAGGGUUCACAUGUG [JL SSNG3 3.78] (Eterna round: R96, puzzle: Same State NG 3)	142	158	242			
GCGAGCGUACUUGCUACAUGAGGAUCACCCAUGUUCGUUGGACAGGAUAUGGUACCGUUUCGGUACCAGAAGGGUUCAUCAUGA [JL SSNG3 3.76] (Eterna round: R96, puzzle: Same State NG 3)	75.7	147	241			
GCGAGCGUACUUGCUACAUGAGGAUCACCCAUGUUUAUUGGACAGGAUAUGGUACCGUUUCGGUACCAGAAGGGUCCACAUGUA [JL SSNG3 3.85] (Eterna round: R96, puzzle: Same State NG 3)	124	198	549			
GCGAGCGUACUUGCUACAUGAGGAUCACCCAUGUUUCAUGGACAGGAUAUGGUACCGUUUCGGUACCAGAAGGGUUCACAUGUG [JL SSNG3 3.81] (Eterna round: R96, puzzle: Same State NG 3)	88.7	68	92.1			
GCGAGCGUACUUGCUACAUGAGGAUCACCCAUGUUUUAUGGACAGGAUAUGGUACCGUUUCGGUACCAGAAGGGUUCACAUGUA [JL SSNG3 3.83] (Eterna round: R96, puzzle: Same State NG 3)	116	150	426			
GCGAUCUACCGGAAGGUAGAUCGGCUUGUACAUGAGGAUCACCCAUGUCUGUACAAGCUUUUUGCUCGUCUUAUGGG [salish99-hsa-208a-66] (Eterna round: R96, puzzle: Sensor for hsa-mir-208a)	1150	27.9	713			
GCGCAAUGAUGUGACAUGAGGAUCACCCAUGUAACCUCAUGUAAGGAUAUCGGGAAAAAAAAAACCGAGAAGGUAUGGUCACGC [AK SSNG3-V2-27.2] (Eterna round: R96, puzzle: Same State NG 3)	145	61.4	138			
GCGCAGCUGGGUGAGGAUAUCGGUGGUAAAACAUGAGGAUCACCCAUGUCCGAAGCUCGGACUUCCGAGAAGGCGCCCGGCUGCA [Ridigea] (puzzle: Same State 2)				13	72.3	115
GCGCAGCUGGGUGAGGAUAUCGGUGGUAAAACAUGAGGAUCACCCAUGUCCGGAGCUCGGACUUCCGAGAAGGCACCCGGCUGCA [Erisais] (puzzle: Same State 2)					27.2	
GCGGAACCUGACAUGAGGAUCACCCAUGUUCCGGAAACGGCACAGGAUAUCUGUCCGAAAAGGUCAGAGAAGGGUGGAAACCGC [Fiskers NG3ss - 98] (Eterna round: R96, puzzle: Same State NG 3)	68	179	193			
GCGGCGGCACGGCAGGAUAUGAUAAAACCUACAUGAGGAUCACCCAUGUCGGCGGGUUGCAAAAUUCAGAAGGGCCCUGUAGGCC [Leorzaonis] (puzzle: Same State 2)				16.6	34.6	38.6
GCGGUACCUAACAUGAGGAUCACCCAUGUUCCGGAAACGGCACAGGAUAUCUGUCCGAAAAGGUCAGAGAAGGGUGAAAACCGC [Fiskers NG3ss - 94] (Eterna round: R96, puzzle: Same State NG 3)	489	396	478			
GCUACCAUAGAAGCCAACAUGAGGAUCACCCAUGUAUGUUGGUAGGAUAUCGAUUGCAAAGCGAUCGAGAAGGGCUAAGGUAGC [Mat - Same State NG 3 - JL Mod - D83] (Eterna round: R96, puzzle: Same State NG 3)	164	130	139			
GCUACCAUUGAAGCCAACAUGAGGAUCACCCAUGUAUGUUGGUAGGAUAUCGAUUGCAAAGCGAUCGAGAAGGGCUAAGGUAGC [Mat - Same State NG 3 - JL Mod - D81] (Eterna round: R96, puzzle: Same State NG 3)	81.2	57.4	66.8			
GCUACCAUUGAAGCCUACAUGAGGAUCACCCAUGUAUGUAGGCAGGAUAUCGAUUGCAAAGCGAUCGAGAAGGGCUUAGGUAGC [Mat - Same State NG 3 - JL Mod - D90] (Eterna round: R96, puzzle: Same State NG 3)	30.8	52.2	79.1			
GCUACCAUUGAAGCCUACAUGAGGAUCACCCAUGUAUGUAGGCAGGAUAUCGAUUGCUUUGCGAUCGAGAAGGGCUUAGGUAGC [JL SSNG3 1.30] (Eterna round: R96, puzzle: Same State NG 3)	21.6	47.5	60.8			
GCUACGGACGUAGGAUAUGUAGGAUAUGGUGAGAGCUAAGCUUGGAAGUCACUUCAACCAGAAGGACAGAAGGACGCCGUGAGG [pwkr ssNG2 2FMN + F9.18] (Eterna round: R96, puzzle: Same State NG 2)	241	13.4	52.2			
GCUAGAAAUAAAGCCAACAUGAGGAUCACCCAUGUAUGUUGGCAGGAUAUCGUAUGCAAAGCAUACGAGAAGGGCCAAACUAGC [Mat - Same State NG 3 - JL Mod - D3] (Eterna round: R96, puzzle: Same State NG 3)	37.3	85	117			

— the supplement of paper PMC9170038
